Values of other authors, collected in patent US20230355537A1, “PROMOTING TRAINED IMMUNITY WITH THERAPEUTIC NANOBIOLOGIC COMPOSITIONS” (Icahn School of Medicine at Mount Sinai, priority 2017, published 2023).

Columns and labels:
PD-1 = biological target: T1, PD-1 (Homo sapiens, UniProt Q15116)
T1 construct: A phase II clinical trial in subjects with diffuse large B-cell lymphoma (DLBCL); host or cells: human trial subjects (endogenous PD-1 on their immune cells)

PD-L1 = biological target: T2, PD-L1 (Homo sapiens, UniProt Q9NZQ7); conditions: in vivo
T2 construct: in subjects with advanced-stage NSCLC, melanoma, RCC, or ovarian cancer; host or cells: human trial subjects (endogenous PD-L1 on tumour and immune cells)
T2 sequence (Q9NZQ7 19-290): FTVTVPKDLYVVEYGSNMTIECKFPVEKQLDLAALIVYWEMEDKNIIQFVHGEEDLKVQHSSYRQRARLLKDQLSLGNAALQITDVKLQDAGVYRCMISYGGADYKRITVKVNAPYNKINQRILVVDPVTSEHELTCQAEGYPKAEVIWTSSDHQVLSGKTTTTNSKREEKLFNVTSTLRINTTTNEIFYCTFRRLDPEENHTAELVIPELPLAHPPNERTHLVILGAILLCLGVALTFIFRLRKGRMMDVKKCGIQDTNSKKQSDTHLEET

T1 sequence (Q15116 25-288): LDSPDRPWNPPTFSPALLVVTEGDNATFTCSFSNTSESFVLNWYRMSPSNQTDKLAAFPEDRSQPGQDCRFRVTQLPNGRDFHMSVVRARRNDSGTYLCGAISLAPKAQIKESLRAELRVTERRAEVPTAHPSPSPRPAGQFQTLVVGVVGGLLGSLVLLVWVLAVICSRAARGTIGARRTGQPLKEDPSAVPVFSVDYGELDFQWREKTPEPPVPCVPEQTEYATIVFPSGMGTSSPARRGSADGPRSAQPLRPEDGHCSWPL

subjects alive (PD-1; DLBCL, preliminary results) [%]	subjects progression-free at the end of the follow-up period (PD-1; DLBCL, preliminary results) [%]	clinical activity (PD-L1)	Substance	activity of natural killer cells (PD-1; in vivo)
82	70	–	CT-011: humanized IgGl monoclonal antibody against PD-I	augments
–	–	durable clinical activity	Medi 4736: anti-PD-LI antibody	–
